Experimental findings from publication PMC8041713, “Identification and biochemical characterisation of tyrosine aminotransferase from Anthoceros agrestis unveils the conceivable entry point into rosmarinic acid biosynthesis in hornworts” (Planta, 2021) are described below.

Common to all, as to test: purified protein
Substrate in series [1]: O=C(O)CC(=O)C(=O)O
The following applies: co-substrate 6 mM L-tyrosine, 0.48 mM PLP, 1 M Tris/HCl pH 8.5, 40 °C.

Substrate in series [2]: CC(=O)C(=O)O
It is filed as biochemical, Anthoceros agrestis. As to conditions: co-substrate 6 mM L-tyrosine, 0.48 mM PLP, 1 M Tris/HCl pH 8.5, 40 °C.

Substrate in series [3]: O=C(O)CCC(=O)C(=O)O
Format: biochemical, Anthoceros agrestis. As to conditions: co-substrate 6 mM L-tyrosine, 0.48 mM PLP, 1 M Tris/HCl pH 8.5, 40 °C.

Substrate in series [4]: N[C@@H](Cc1ccccc1)C(=O)O
Format: biochemical, Anthoceros agrestis. As to conditions: co-substrate 80 mM 2-oxoglutarate, 0.48 mM PLP, 1 M Tris/HCl pH 8.5, 40 °C.

Substrate in series [5]: N[C@@H](Cc1ccc(O)cc1)C(=O)O
It is filed as biochemical, Anthoceros agrestis. As to conditions: co-substrate 80 mM 2-oxoglutarate, 0.48 mM PLP, 1 M Tris/HCl pH 8.5, 40 °C.

Substrate in series [6]: O=C(O)C(=O)Cc1ccccc1
Format: biochemical, Anthoceros agrestis. As to conditions: co-substrate 6 mM L-tyrosine, 0.48 mM PLP, 1 M Tris/HCl pH 8.5, 40 °C.

B1: AaTAT (tyrosine aminotransferase) (Anthoceros agrestis) (protein)
chain: MATVLNQKRQAEILHGNGVEGGGGGLAVSKIMSKAVVGKPPVARKPAGKTVDKEWNVRPRIAALESRNPIRDIVETKLKPNPNLGKKPISLAQGDPTVYGHLKVPESACAALAEVATSYKYNGYAHSAGILECRSAVADFHSEHLPFELTPEDVGIVVGCSQAIEFSIACLAAEGSNMLVPRPGFPIYDTFCRYYGVEVRYYDLLPERGWEVDLEQVAELADDDTAAMILCNPSNPCGTSFSYQHLSQIAGLCEKLKLPIISDEIYEHMLFGEKKFTPMATFSLQVPVLTVGGISKRWLAPGWRLGWILICDPCCILEKSGVVEALKRIMQMTIGTSVLVQAAVPAMLQNTTPEFYKQTMKTLEDGCDCCYRRIQGIVGLDVPTKPDGAMYMMAKVDPSAFKDIPDDTVFAEKLVKEENIVVLPGSAFGIHNWLRLVFATPVYMLEEAFDRIEAFCLRHASVQN
notes: full length, 464 residues (1395 bp), N-terminal 6xHis tag kept, pET-15b, E. coli SoluBL21, Ni-NTA
A word on the Km: it is the substrate concentration at which the rate is half of its maximum. Usually Vmax stands for the top rate of the reaction or transport when substrate is in excess. In general, kcat refers to the maximal rate divided by the concentration of active sites. The kcat/Km is the second-order rate constant that governs catalysis at low substrate concentration. As for B1, the Km in the series “purified protein [1]” was 4.05 ± 1.44 mM; in “purified protein [2]”, 81.14 ± 15.12 mM; in the series “purified protein [3]”, 15.13 ± 1.34 mM; in the series “purified protein [4]”, 70.47 ± 4.18 mM; in “purified protein [5]” it was 0.53 ± 0.05 mM; in “purified protein [6]”, 7.92 ± 2.35 mM. The Vmax in “purified protein [1]” was 0.756 µmol/min/mg; in “purified protein [2]”, 13.4 µmol/min/mg; in “purified protein [3]”, 82.6 µmol/min/mg; in the series “purified protein [4]”, 134 µmol/min/mg; in the series “purified protein [5]”, 55.3 µmol/min/mg; in the series “purified protein [6]”, 31.8 µmol/min/mg. Besides, the kcat stood at 0.7 s⁻¹ in “purified protein [1]”; 11.9 ± 1.6 s⁻¹ in “purified protein [2]”; 73.1 ± 5.2 s⁻¹ in “purified protein [3]”; 119 ± 26.9 s⁻¹ in the series “purified protein [4]”; 48.9 ± 7.6 s⁻¹ in the series “purified protein [5]”; 28.2 ± 6.2 s⁻¹ in “purified protein [6]”. In addition, the kcat/Km in the series “purified protein [1]” was 200 M⁻¹ s⁻¹; in the series “purified protein [2]”, 150 ± 20 M⁻¹ s⁻¹; in “purified protein [3]” it was 4900 ± 300 M⁻¹ s⁻¹; in the series “purified protein [4]”, 1700 ± 400 M⁻¹ s⁻¹; in “purified protein [5]”, 91700 ± 9800 M⁻¹ s⁻¹; in “purified protein [6]”, 3900 ± 1400 M⁻¹ s⁻¹.
